Test results as given in US20030203841A1 (US Dept. of Health and Human Services, published 2003).
Where no end group is shown, it is not given here. The star is where a group is joined. For = O=C*

T1: epitope tagged N-formyl peptide receptor (FPR) on ETFR cells (stably transfected rat basophilic leukemia … (human, UniProt P21462 1-350))
T1 sequence: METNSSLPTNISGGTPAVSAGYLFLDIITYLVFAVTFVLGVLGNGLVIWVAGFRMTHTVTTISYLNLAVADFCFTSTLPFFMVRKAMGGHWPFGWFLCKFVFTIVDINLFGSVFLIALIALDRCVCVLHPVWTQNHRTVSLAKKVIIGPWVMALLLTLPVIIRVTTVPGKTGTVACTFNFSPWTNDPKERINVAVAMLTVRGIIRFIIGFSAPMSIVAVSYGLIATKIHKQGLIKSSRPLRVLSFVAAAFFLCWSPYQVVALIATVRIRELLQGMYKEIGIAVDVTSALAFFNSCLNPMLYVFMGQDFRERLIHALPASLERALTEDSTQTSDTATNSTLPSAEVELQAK

T2: FPR-like receptor 1 (FPRL1) on transfected human embryonic kidney 293 cells (FPRL1/293 cells) (human, UniProt P25090 1-351)
T2 sequence: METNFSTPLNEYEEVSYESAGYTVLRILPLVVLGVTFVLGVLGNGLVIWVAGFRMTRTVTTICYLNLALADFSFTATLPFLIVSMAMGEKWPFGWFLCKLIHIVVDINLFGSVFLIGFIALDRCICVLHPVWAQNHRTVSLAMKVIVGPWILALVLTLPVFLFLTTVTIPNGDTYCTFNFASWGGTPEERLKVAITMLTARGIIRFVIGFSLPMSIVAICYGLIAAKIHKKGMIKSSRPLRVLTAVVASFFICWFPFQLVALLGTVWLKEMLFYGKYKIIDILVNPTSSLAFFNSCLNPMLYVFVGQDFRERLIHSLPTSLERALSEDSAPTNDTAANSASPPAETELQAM


Assays:
[1] = target: epitope tagged N-formyl peptide receptor (FPR) on ETFR cells (stably transfected rat basophilic leukemia cells) (human) (UniProt P21462); test: cell-based or functional assay
[2] = target: epitope tagged N-formyl peptide receptor (FPR) on ETFR cells (stably transfected rat basophilic leukemia cells) (human) (UniProt P21462); test: competition of unlabeled fMLP with ^3H-fMLP for binding to FPR expressing ETFR cells, filtration, 20 min at 37 C
[3] = target: T1, epitope tagged N-formyl peptide …; test: cell-based or functional assay
[4] = target: T2, FPR-like receptor 1 (FPRL1) on …; test: cell-based or functional assay

Row | Molecule | EC50 of migration of ETFR cells (chemotaxis) [1] [nM] | concentration required to induce a change in the ratio of 2 at 340/380 nm fluorescence (Ca^++) in FPR expressing cells [1] | IC50 [2] [nM] | concentration required to induce a change in the ratio of 2 at 340/380 nm fluorescence (Ca^++) in FPR expressing cells [3] | EC50 of migration of FPRL1/293 cells (chemotaxis) [4] [nM] | concentration required to induce a change in the ratio of 0.6 at 340/380 nm fluorescence (Ca^++) in FPRL1/293 cells [4] | excess of fMLP needed to desensitize the Ca^++ flux induced by T21/DP107 in FPRL1/293 cells [4] [fold]
1 | N-formyl-methionyl-leucyl-phenylalanine (fMLP) (peptide) | 0.5 | 1e-10 | 1 |  |  |  | 
2 | NNLLRAIEAQQHLLQLTVWGIKQLQARILAVERYLKDQ (also: some embodiments acylated, form not given here) [T21/DP107] |  |  |  | 1e-05 | 50 | 5e-07 | 
3 | For-Met-Leu-Phe (also: tritiated (3H) form used as tracer) [N-formyl-methionyl-leucyl-phenylalanine (fMLP)] |  |  |  |  |  | 5e-05 | 1000
